Changes are numbered by the printed parent chain.

The target in data set [1] is T1, OhrR (Bacillus subtilis, UniProt O34777).
T1 construct: made in house
Briefly: OhrR-biothiol binding by MALDI-TOF MS. The note with it: 300 nM OhrR, 3 μM CHP. Details: species or system B. subtilis. How it is done:
It was confirmed whether it is possible to quantitatively analyze the binding of OhrR and a biothiol using a Matrix-Assisted Laser Desorption Ionization-Time-of-Flight Mass Spectrometry (MALDI-TOF mass spectrometer; MALDI-TOF MS).
1 mL of a 300 nM OhrR-containing buffer (20 mM Tris (pH 8.0), 100 mM NaCl, 5% Glycerol) was mixed with a biothiol (Cys, Hcy or GSH) at each concentration (0, 1, 2, 4, 8, 16, 32, or 64 μM). After 3 μM CHP reacted with each resulting mixture for 2 minutes, 110 μL of 100% TCA was treated to stop the oxidation reaction, and precipitate OhrR. To alkylate the precipitated OhrR, 50 mM iodoacetamide was treated, thereby blocking a cysteine residue of the reduced OhrR. The protein was isolated by sodium dodecyl sulphate-polyacrylamide gel electrophoresis (SDS-PAGE), and then a band corresponding to OhrR was cut out and treated with trypsin (37° C., 12 hours or more), followed by extraction from the gel. 0.5 μL of the extracted peptides were treated with 0.5 μL of a-cyano-4-hydroxycinnamic acid (CHCA) (in 50% acetonitrile, 1% TFA) and dehydrated, and then subjected to MALDI-TOF analysis. The MADI-TOF analysis was performed using a 4700 Proteomics Analyzer instrument (Applied Biosystems).

Data set [2] concerns the target T1, OhrR. Briefly: Biochip detection of LMW biothiols (His6-tag OhrR, HisProbe-HRP, TMB absorbance at 450 nm). The note with it: same concentration (final 100 μM biothiol), CHP final 5 μM, 10 minutes. In kind it is biochemical. How it is done: A biochip method is for […] using His6-tag of OhrR, rather than by labeling with fluorescence or a DNAzyme, according to a principle that OhrR is detached from dsDNA attached to the surface of a biochip in the presence of LMW biothiols, thereby reducing a detection signal.
150 μL of 5 mg/mL NeutrAvidin® (Thermo Scientific, USA) diluted with a coating buffer (100 mM Na2HPO4, 50 mM citric acid) was put into each well of a transparent 96-well plate, and reacted at 37° C. for 4 to 5 hours, and then an unbound residue was washed with TBS four times. After washing, 300 μL of a Seablock blocking buffer (Thermo Scientific, USA) was put into each well and shaken at room temperature for 2 hours for blocking (process of coating NeutrAvidin-unbound surface to prevent non-specific reaction), followed by re-washing with TBS four times. […]
(§1) 50 μL of one of CHP (final 5 μM) and a LMW biothiol (final 100 μM for each of L-cysteine, homocysteine and GSH) was simultaneously put into each well using the biochip to which biotin-dsDNA and His6-tag OhrR were fixed to the NeutrAvidin-coated plate, reacted at room temperature for 10 minutes, and washed with TBS for 4 times. […] After 5 minutes, 2M sulfuric acid was added to stop the reaction, and absorbance was measured at 450 nm. […]

Data set [3] deals with T2, FLAG-OhrR (Bacillus subtilis, UniProt O34777 SEQ:1-147).
T2 sequence: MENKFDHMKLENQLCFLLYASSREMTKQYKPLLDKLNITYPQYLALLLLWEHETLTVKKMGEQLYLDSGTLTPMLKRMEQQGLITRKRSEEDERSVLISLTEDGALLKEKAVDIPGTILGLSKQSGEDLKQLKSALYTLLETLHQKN
The experiment in a line: pulldown; anti-FLAG beads, 2 uM OhrR, 100 nM DNA, TBS; released by CHP plus biothiol. The note with it: tags: FLAG (DYKDDDDK), expressed in E. coli; chain copies: 2; label: 6-FAM. How it is done: First, 30 μL of M2 FLAG affinity beads (Sigma, A2220) were added to respective tubes corresponding to the number of samples, and FLAG-tagged OhrR (2 μM) was bound thereto for 1 hour to reach the total volume of 200 μL (when OhrR is bound to the His6 tag, NTA-Beads can also be used). To remove unbound OhrR, after spin-down, a supernatant was removed, fluorophore or DNAzyme-bound OhrR-binding dsDNA (100 nM, SEQ ID NOs: 1 and 2) was bound to the OhrR-bound beads for 30 minutes. […] Afterward, 200 μL of a supernatant obtained by spin-down was transferred to a 96-well plate, and fluorescence or chemiluminescence was measured. […]
OhrR-binding dsDNA was bound with a fluorescent factor FAM, and 200 μL of the final supernatant was transferred to a 96 well plate, followed by fluorescence measurement using a multi plate reader (Variokan, Thermo Scientific). In the fluorescence measurement, a fluorescent signal value at a 525 nm emission wavelength obtained at an excitation wavelength of 480 nm was obtained, and a fluorescence value of each well was corrected using a well only containing a buffer without a fluorescent factor as a reference value, followed by comparing these values.

The target of data set [4] is T3, OhrR (organic hydroperoxide regulator) (Bacillus subtilis, UniProt O34777 SEQ:1-147).
T3 sequence: T2 sequence
Briefly: FP; 50 nM DNA, 300 nM OhrR; 20 mM Tris pH 8.0, 150 mM NaCl, 5% glycerol; dissociates on CHP plus Cys/Hcy/GSH. The note with it: chain copies: 2; label: 6-FAM. How it is done:
The binding activity between OhrR and fluorescence (6FAM, 6-carboxyfluorescein)-labeled OhrR-binding DNA was measured every 10 seconds using an LS55 luminescence spectrometer (PerkinElmer) after dissolution in 3 mL of a buffer at a concentration under the experimental conditions. When OhrR binds to DNA, an anisotropy value (Anis) increases. However, when OhrR is dissociated from DNA, an anisotropy value decreases. In each experiment, three representative biothiols such as cysteine (Cys), homocysteine (Hcy) and glutathione (GSH) were treated at various concentrations (0, 1, 2, 4, 8, 16, 32, and 64 μM). While OhrR was bound to DNA in the presence of only a free biothiol, a real-time dissociation rate of OhrR from DNA was measured by treating a type of representative organic hydroperoxide, that is, cumene hydroperoxide (CHP) (treated at 300 sec).

Data set [5] addresses T2, FLAG-OhrR. The experiment in a line: pulldown; anti-FLAG beads, 5 uM OhrR, 100 nM DNA, TBS; released by CHP plus cysteine, chemiluminescence readout. The note with it: tags: FLAG (DYKDDDDK), expressed in E. coli; chain copies: 2; label: 5' biotin on complementary strand; 5' single-stranded peroxidase DNAzyme plus T9 linker overhang. How it is done: After unbound dsDNA was removed by spin-down, 160 μL of a buffer (Tris Buffered Saline, TBS)->20 μL of LMW biothiols (by concentration)->20 μL of CHP (500 μM) were sequentially added to each tube, followed by shaking for 5 minutes. Afterward, 200 μL of a supernatant obtained by spin-down was transferred to a 96-well plate, and fluorescence or chemiluminescence was measured. The reducing agent (DTT)-untreated sample may be used for measuring free LMW biothiols, and the reducing agent-treated sample may be used for measuring total LMW biothiols [FIG. 9].
200 μL of the DNAzyme (5′-GG GTT GGG CGG GAT GGG-3′ [SEQ ID NO: 6], synthesized by IDT)-bound OhrR-binding dsDNA was recovered from a supernatant, and 20 μL of a suspension of NeutrAvidin®-coated beads (Thermo Scientific, USA) was added thereto, followed by shaking at room temperature for 30 minutes. Afterward, washing was performed with a TBS (20 mM Tris, 150 mM NaCl, pH 7.4) buffer four times. To induce DNAzyme activity, 180 μL of a TBS buffer was mixed with 20 μL of 1 μM Hemin (Calbiochem, USA) (in TBS) solution to reach the final volume of 200 μL, the beads were precipitated, and then the resulting solution was left at room temperature under a dark condition for 15 minutes or more. […]

Data set [6] deals with T3, OhrR (organic hydroperoxide regulator). The experiment in a line: BLI; 50 uM OhrR, TBS; binding thickness about 4.3 nm, falls to about 1 nm with CHP plus biothiol; CHP or biothiol alone still binds. The note with it: chain copies: 2; label: biotin.
Data set [7] concerns the target T4, His6-OhrR (Bacillus subtilis, UniProt O34777 SEQ:1-147).
T4 sequence: T2 sequence
The experiment in a line: plate assay on NeutrAvidin, 5 uM OhrR, TBS, HisProbe-HRP readout; signal reduced by CHP plus biothiol. The note with it: tags: His6; chain copies: 2; label: biotin. How it is done:
150 μL of 5 mg/mL NeutrAvidin® (Thermo Scientific, USA) diluted with a coating buffer (100 mM Na₂HPO₄, 50 mM citric acid) was put into each well of a transparent 96-well plate, and reacted at 37° C. for 4 to 5 hours, and then an unbound residue was washed with TBS four times. After washing, 300 μL of a Seablock blocking buffer (Thermo Scientific, USA) was put into each well and shaken at room temperature for 2 hours for blocking (process of coating NeutrAvidin-unbound surface to prevent non-specific reaction), followed by re-washing with TBS four times. 100 μL of a biotin-DNA solution diluted with a TBS buffer to 1 μM was put into each well of the blocking-completed microplate, and reacted at room temperature for 1 hour, followed by washing with TBS four times. […]
as §1

On to `N[C@@H](CS)C(=O)O` [Cys, cysteine], for which the “detection signal level among the measured LMW biothiols” value in data set [1] was “highest detection signal level”. Further, the “absorbance signal reducing effect compared with homocysteine or GSH” value in data set [2] was “higher absorbance signal reducing effect”.

B1: OhrR operator dsDNA, 6FAM (dsDNA)
DNA 1: TACAATTAAATTGTATACAATTAAATTGTA
DNA 2: B1 DNA 1 with A8T, A23T
For the molecule B1, the binding result in data set [3] and in data set [4] was “binds” each time.

B2: DNAzyme-linked OhrR operator dsDNA probe (dsDNA)
DNA 1: GGGTTGGGCGGGATGGGTTTTTTTTTTACAATTAAATTGTATACAATTAAATTGTA
DNA 2: B1 DNA 1 with A8T, A23T
On to B2, for which, in data set [5], the binding result is reported as “binds”.

B3: OhrR operator dsDNA, biotin (dsDNA)
DNA 1: B1 DNA 1
DNA 2: B1 DNA 1 with A8T, A23T
Regarding B3, the binding result in data set [6] and in data set [7] was “binds” each time.

These data come from patent US20190331690A1, “BIOTHIOL DETECTION COMPOSITION COMPRISING REDOX REGULATION PROTENIN” (INDUSTRY-UNIVERSITY COOPERATION FOUNDATION HANYANG …, priority 2016, published 2019).
